B1: EHEE_rd2_0601 (parent)
chain: TYTYKLTDEEASRRAEDEWRNRGYDVRVRNNNGTWEVEVR
B2: EHEE_rd4_0086 (parent)
chain: EIHIRTNGEEQARKVYKMLAKRNYDVKIEQHNGQWVVTAS

Variants of: B1
Assay: folding stability dG (cDNA display proteolysis); higher = more stable
Conditions: PBS, room temperature

Folding stability dG [kcal/mol], by site and new letter:
N32: T 0.049 | V 0.08 | W -0.071 | Y 0.605
V37: I 1.75 | L 1.46 | T -0.63 | F 0.362 | A -0.419 | Y -0.753 | W -0.973 | H 0.241 | M 0.715
T34: H 1.2 | D 0.864 | E 1.28 | F 1.62 | L 1.48 | N 0.99 | Q 1.48 | A 1.17 | S 1.28 | R 0.865 | I 2 | G 0.674 | V 2.01 | Y 1.66 | M 1.58 | W 1.54 | K 0.867
W35: M -0.533 | T -0.644 | P -0.671 | F 0.888 | L -0.206 | I 0.328 | V -0.844 | C -0.208 | Y 0.894
E36: N 0.173 | M 1.19 | C 1.26 | T 1.27 | D 0.292 | Y 1.98 | R -0.245 | A 0.137 | W 1.83 | V 1.58 | F 1.75 | I 1.93 | S 0.611 | L 1.6 | H 0.826 | Q 0.744
R40: G 0.86 | K 1.29 | F 1.65 | C 1.7 | A 1.03 | W 1.8 | E 0.721 | S 1.71 | Q 1.09 | M 1.41 | L 1.43 | T 1.54 | I 1.51 | P 0.016 | V 1.32 | H 1.1 | D 0.685 | Y 1.59 | N 0.95
V39: W -0.503 | M -0.536 | Y -0.431 | T -0.975 | H -0.712 | I 1.41 | C 1.46 | A -0.517 | L 0.587 | R -0.789 | F 0.048
E38: H 1.02 | D 0.701 | K 0.392 | N 0.56 | A 0.691 | G -0.74 | M 1.33 | L 1.28 | Y 1.03 | F 1.03 | T 1.71 | W 0.84 | Q 1.2 | S 1.23 | R 0.772 | V 1.61 | I 1.77
G33: W -0.61 | K -0.238 | T -0.078 | H -0.011 | F -0.159 | R -0.712 | Y -0.464 | Q 0.157 | M -0.081 | S 0.025 | C 0.74 | D 0.603 | L -0.48 | E 0.259 | A -0.168 | N 0.553 | V -0.925

Variants of: B2
Assay: as above
Conditions: PBS, room temperature

Folding stability dG [kcal/mol]: each site, then its substitutions
E1: P 1.91 | G 1.84 | M 2.29 | Y 2.5 | R 2.29 | F 2.51 | Q 2.17 | L 2.37 | D 1.72 | A 2.08 | T 2.31 | N 1.8 | W 2.55 | I 2.48 | H 2.46 | K 2.3 | V 2.47 | S 2.08
T6: K 0.706 | R 0.963 | F 3.03 | S 1.16 | M 1.91 | Q 0.309 | N 0.438 | A 1.73 | Y 1.89 | W 0.843 | L 2.35 | I 2.02 | P 0.496 | H 0.847 | V 2.55 | D -0.07 | G 0.494 | E 0.299
R5: W 2.43 | C 2.85 | Q 1.52 | M 1.98 | D 0.471 | A 1.53 | P 1.19 | L 2.08 | F 2.36 | V 2.32 | K 1.75 | S 1.45 | G 0.692 | I 2.4 | Y 2.52 | H 1.96 | N 1.18 | T 1.97 | E 1.34
I4: M 0.855 | P -0.436 | V 1.46 | D -0.257 | E -0.06 | R 0.105 | N -0.203 | G -0.953 | K -0.031 | W 1.65 | Q 0.032 | S -0.073 | F 2.16 | L 1.12 | Y 2.12 | H 0.442 | A 0.01 | T -0.094
A12: R -0.218 | L 0.213 | M 0.486 | K -0.265 | I 0.115 | S 0.335 | F -0.019 | W 0.477 | G 0.134 | T 0.108 | V -0.114 | C 2.51 | Q -0.947 | Y -0.25
G8: V 2.06 | A 1.79 | L 2.05 | I 2.21 | Q 1.94 | S 3.25 | K 2.1 | R 2.17 | D 2.96 | T 2.86 | P 0.221 | W 2.02 | E 2.06 | F 2.22 | H 2.21 | N 2.94 | M 1.88 | Y 2.22
E9: P 1.92 | L 2.44 | H 1.55 | A 1.53 | G 0.745 | I 2.26 | D 0.638 | Q 1.52 | T 0.873 | W 2.41 | S 1.14 | N 0.702 | M 1.75 | K 1.69 | R 1.77 | F 2.33 | V 1.76 | Y 2.52
R13: C 2.74 | A 1.03
N7: Y 1.99 | R 2.06 | V 1.66 | T 1.99 | S 1.95 | G 1.5 | I 1.69 | L 1.81 | D 1.82 | P 1.32 | H 1.73 | A 1.95 | M 1.69 | K 1.77 | Q 1.85 | E 1.69 | W 2.08 | F 2.03
I2: A 0.327 | E 0.258 | Q 0.226 | H 0.983 | T 0.864 | R 0.978 | V 1.42 | S 0.144 | L 1.61 | Y 1.65 | D 0.01 | K 0.769 | M 1.38 | P 0.357 | F 2.2 | N 0.024 | W 2.36 | G -0.001
Q11: E 2.1 | R 1.51 | W 2.1 | L 1.89 | S 1.55 | N 1.35 | P 0.372 | D 1.67 | A 1.89 | V 1.61 | Y 2 | H 1.96 | T 1.59 | K 1.4 | G 1.02 | F 2.05 | M 1.95 | I 1.84
H3: F 2.2 | A 1.64 | W 2.12 | V 2.85 | M 2.23 | T 2.41 | L 2.14 | Y 2.36 | E 2 | P 0.072 | K 2.26 | D 0.614 | R 2.4 | G 0.661 | N 1.67 | I 2.81 | S 2 | Q 2.06
E10: G 1.64 | T 1.78 | H 1.58 | L 1.98 | Y 1.81 | F 1.73 | A 2.22 | R 2.17 | V 1.81 | N 1.72 | M 1.89 | K 2.15 | S 1.93 | W 2.06 | D 1.74 | I 1.84 | P 1.37 | Q 1.81

From the MegaScale stability set (Tsuboyama et al. 2023)
